This is an account of results in patent publication US20220010006A1 (BEIJING HANMI PHARMACEUTICAL, published 2022).

For assay [1], the target named is transmembrane TNFα on Jurkat/tmTNFα cells. Kind of assay: cell-based or functional assay.
The target of the next assay is T1, mouse IL-17A (mouse, UniProt Q62386 26-158).
T1 construct: also called recombinant mouse IL-17A
T1 sequence (looked up): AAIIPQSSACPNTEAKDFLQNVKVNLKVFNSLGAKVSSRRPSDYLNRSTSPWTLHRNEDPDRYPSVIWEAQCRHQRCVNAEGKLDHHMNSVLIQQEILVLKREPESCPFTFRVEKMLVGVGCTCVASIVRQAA
In words: ELISA, plate-coated antigen 1 µg/mL, anti-human IgG-HRP. How it is done:
(§1) Detailed procedures are as follows: the recombinant mouse TNFα, rat TNFα, mouse IL-17A and rat IL-17A (all purchased from Sino Biological, P. R. China) were coated on wells of a 96-well high-adsorption ELISA plate using a carbonate buffer solution of pH 9.6 at a coating concentration of 1 μg/mL and in a coating amount of 100 μL per well. The coating was performed at 4° C. overnight. The wells were washed with PBST 5 times. The wells were blocked with 300 μL per well of PBST containing 1% BSA, and incubated for 1 hour at 25° C., and washed with PBST 5 times. […] The wells were washed with PBST 5 times. Then, horseradish peroxidase-labeled anti-human IgG antibody (Chemicon, cat #AP 309P) 1:10000 diluted in PBST containing 1% BSA was added in an amount of 100 μL per well, and incubated at 25° C. for 1 hour. The wells were washed with PBST 5 times. The chromogenic substrate TMB was added in an amount of 100 μL per well, and color developed at room temperature for 10 minutes. Color development was terminated by adding 1M H₂SO₄ in an amount of 100 μL per well. The absorbance at 450 nm was read on a microplate reader.

A further assay has as its target T2, rat IL-17A (rat, UniProt Q61453 18-150, limits assumed).
T2 construct: also called recombinant rat IL-17A
T2 sequence (looked up): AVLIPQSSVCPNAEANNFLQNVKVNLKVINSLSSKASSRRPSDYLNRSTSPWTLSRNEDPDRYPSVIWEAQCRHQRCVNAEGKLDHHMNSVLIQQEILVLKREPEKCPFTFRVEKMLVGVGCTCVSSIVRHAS
The description is as above. How it is done:
as §1

On to Humira® (antibody), for which, in assay [1], the Apoptosis ratio (%) of Jurkat/tmTNFα cells, Humira 1 µg/mL is 29.9% and the Apoptosis ratio (%) of Jurkat/tmTNFα cells, Humira 10 µg/mL was 28.2%.
As for Enbrel® (Fc fusion), in assay [1], the Apoptosis ratio (%) of Jurkat/tmTNFα cells, Enbrel 1 µg/mL was 19% and the Apoptosis ratio (%) of Jurkat/tmTNFα cells, Enbrel 10 µg/mL was found to be 21%.

B1: anti-mouse IL-17A monoclonal antibody (1D10 variable regions) (antibody, V domains shown)
VH: QVQLKESGPGLVQPSQTLSLTCTVSGFSLTNYYVHWVRQPPGKGLEWMGGVWNDGDTSYNSVLRSRLSITRDTSKSQVLLKMSSLQTEDTATYYCAREGREGFVGYYVMDAWGPGASVTVSS
VL: DIQMTQSPSFLSASVGERVTLSCKASQNINKYLDWFQQKLGEAPKLLIYNADNLHTGIPSRFSGSGSFSDFILTISSLQPEDDATYFCLQRESWPYTFGAGTKLELK
notes: Parental control of BH1654; variable regions from U.S. Pat. No. 7,846,443, 1D10; also called The anti-mouse IL-17A monoclonal antibody; anti-mouse IL-17A mAb
For B1, the figures for the EC50 with mouse IL-17A and with rat IL-17A were 0.027 nM and 0.032 nM, respectively.
